The text below walks through data of the supplement of paper PMC10567573.

The nature of the series: protein stability index of a GFP-peptide fusion (GPS, HEK-293T) (PSI 1-6); higher = more stable.
The mark [1] stands for this setting: treatment: DMSO, c terminus: a fixed tail appended.
Setting [2] is: treatment: MLN4924 1 uM, 8 h, c terminus: a fixed tail appended.

± gives the standard deviation.
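Further: 24-mer peptide tiles fused after GFP, lentivirally expressed, FACS-sorted into six equal bins by GFP/DsRed ratio, decoded by Illumina sequencing, PSI is the read-weighted mean bin number.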

Consider IAENGVSERDSEAAKQNHVTADDF [EHMT1], for which the protein stability index amounted to 5.39 ± 0.15 under setting [1] and 5.42 ± 0.11 under setting [2].

Turning to IEEYMVHVEEHFQLLARRMQVDKK [FUT8], the protein stability index worked out at 3.06 ± 0.35 under setting [1] and 3.2 ± 0.27 under setting [2].

In the case of IELAPLSMPRINHGVLSAEGFLFV [GAN], the protein stability index amounted to 3.34 ± 1.1 under setting [1] and 2.81 ± 0.61 under setting [2].

As for IETEDQIDKKPVSEKTDESDTIPY [MIA2], the protein stability index is, setting by setting: under setting [1], 5.53 ± 0.3; under setting [2], 5.3 ± 0.36.

For IEVKTKGGSKYLIYRRYRQFHALQ [NCF4], the protein stability index is, setting by setting: under setting [1], 2.22 ± 0.35; under setting [2], 2.2 ± 0.33.

Take IFMLCTLVLAIPLLLILVSYVHIL [OR10K2]: the protein stability index runs as follows: under setting [1], 3.35 ± 0.26; under setting [2], 3.18 ± 0.36.

On to IFYGSGIFNYMRLGSTKLSDKDKA [OR3A1], for which the protein stability index reads like this: under setting [1], 1.93 ± 0.23; under setting [2], 2.12 ± 0.19.

IGPNVLMVHKRSHTGERPFQCNQC [IKZF1] showed a protein stability index under setting [1] of 2.93 ± 0.26 and a protein stability index under setting [2] of 3.17 ± 0.43.

Regarding IIEYRGKFMLREQFEANGYFFKRP [KMT2E], the protein stability index under setting [1] was 2.31 ± 0.63 and the protein stability index under setting [2] stood at 2.37 ± 0.36.

For IIKQLKDVFERDWYSPYAKTLQPT [PLD5], the protein stability index came out at 1.98 ± 0.59 under setting [1] and 1.97 ± 0.39 under setting [2].

Consider IIQYRLPMKKNNNLYSWDDFMELG [ACSBG2], for which the protein stability index runs as follows: under setting [1], 2.12 ± 0.32; under setting [2], 1.98 ± 0.25.

On to IKEIDEHAPGVPRILVGNRLHLAF [RAB40C], for which the protein stability index worked out at 2.21 ± 0.21 under setting [1] and 2.06 ± 0.28 under setting [2].

With IKRTIRVLDVNNQSFREQEEPSNK [NET1], the protein stability index reads like this: under setting [1], 3.68 ± 0.42; under setting [2], 3.93 ± 0.26.

Regarding ILFSLPPALDWDSVHVPGPHAMTI [PTPN9], the protein stability index under setting [1] worked out at 2.66 ± 0.42 and the protein stability index under setting [2] turned out to be 2.35 ± 0.62.

Take ILKIRHGWEDVTKINKTEICSQL [STEAP1]: the protein stability index by setting is: (treatment: DMSO, c terminus: native) 2.42 ± 0.57; (treatment: MLN4924 1 uM, 8 h, c terminus: native) 2.2 ± 0.21.

In turn, ILLDGSEYTCDVEKRSRGQVLFDK [EPB41L3] returned a protein stability index under setting [1] of 2.86 ± 0.55 and a protein stability index under setting [2] of 2.94 ± 0.61.

ILTLTMISLFFLIIYMGSFMLMLL [CDS1] came in with a protein stability index under setting [1] of 2.4 ± 0.65 and a protein stability index under setting [2] of 2.35 ± 0.39.

Regarding IPKVELQISIYGVKILEPKTKEVQ [GULP1], the protein stability index was found to be 2.46 ± 0.51 under setting [1] and 1.98 ± 0.23 under setting [2].

Consider IQDNGTGIRKEDLDIVCERFTTSK [MLH1], for which the protein stability index came to 4.17 ± 0.2 under setting [1] and 4.46 ± 0.33 under setting [2].

Turning to IQGADTIRCVYILDPWFAGSSNVG [CRY1], the protein stability index under setting [1] amounted to 2.81 ± 0.56 and the protein stability index under setting [2] came to 2.6 ± 0.54.

IRKEMKLLEQAGSLKGSLSVEEQL [CRYL1] gave a protein stability index under setting [1] of 4.54 ± 0.53 and a protein stability index under setting [2] of 4.372 ± 0.012.

Take IRRAYPDANLLNDRVLRAMLKAEE [CCND1]: the protein stability index amounted to 2.96 ± 0.24 under setting [1] and 3.52 ± 0.47 under setting [2].

Regarding ISKKFGDMSYSIRHSISMPAMRNS [TPD52L1], the protein stability index is 2.51 ± 0.41 under setting [1] and 2.65 ± 0.52 under setting [2].

As for ISPGKNATGMEVGWYRPPFSRVVH [MOG], the protein stability index reads like this: under setting [1], 2.45 ± 0.17; under setting [2], 2.69 ± 0.23.

Take ISRDRLSSYYKFKLTREVLSLFVQ [ZER1]: the protein stability index under setting [1] turned out to be 2.11 ± 0.52 and the protein stability index under setting [2] was determined as 2.13 ± 0.29.

For the sequence ISSGLRGCMLIELALRGRLQLEAC [GOLPH3], the protein stability index is 3.22 ± 0.62 under setting [1] and 2.67 ± 0.21 under setting [2].

For ISSTSTKRTYWPDLDAKIREALVL [PLD5], the protein stability index reads like this: under setting [1], 2.38 ± 0.39; under setting [2], 2.43 ± 0.49.

The sequence ITDLPRIDVSKREPPPVKQELPPY [EFHC1] came in with a protein stability index under setting [1] of 4.37 ± 0.033 and a protein stability index under setting [2] of 4.45 ± 0.17.

In the case of ITHSTVGSKGEKDLGASSLHVNGE [EHMT1], the protein stability index by setting is: under setting [1], 4.9 ± 0.2; under setting [2], 5.03 ± 0.24.

For ITTKIFWGGKAETERGLSRKHIIE [KCNAB2], the protein stability index under setting [1] is 2.65 ± 0.29 and the protein stability index under setting [2] is 2.89 ± 0.33.

IVAGGYDERVLENVEHYQELKKMV [ALG2]: the protein stability index by setting is: under setting [1], 3.14 ± 0.25; under setting [2], 3.2 ± 0.11.

With IWEQRSATVVMMTKLEERSRVKCD [PTPRD], the protein stability index was 3.29 ± 0.27 under setting [1] and 3.26 ± 0.41 under setting [2].

Regarding KAFYKRYRLTEHERAHKGEKPYGC [ZNF649], the protein stability index under setting [1] came out at 3.62 ± 0.93 and the protein stability index under setting [2] is 3.16 ± 0.57.

For KAHETLHQSLSLASSPKGTIENIL [CDC25A], the protein stability index reads like this: under setting [1], 3.55 ± 0.5; under setting [2], 3.59 ± 0.22.

KAPSKLGLIISGPILQEGMDEEKL [DLC1]: the protein stability index runs as follows: under setting [1], 4.47 ± 0.38; under setting [2], 4.54 ± 0.36.

As to KARGKSGPLFNFDVHDDVRLLSDA [FAM50A], the protein stability index was 3.87 ± 0.15 under setting [1] and 3.81 ± 0.3 under setting [2].

As for KASALNTKIRALQGSLENMSKLLK [CD207], the protein stability index is, setting by setting: under setting [1], 2.22 ± 0.33; under setting [2], 2.26 ± 0.32.

Take KAYDHQTQELVAIKIIKNKKAFLN [DYRK1B]: the protein stability index by setting is: under setting [1], 2.37 ± 0.22; under setting [2], 2.62 ± 0.25.

KCLQLLGNLGSLEKSVTKDAEGLA [INTS4]: the protein stability index reads like this: under setting [1], 2.82 ± 0.46; under setting [2], 3.08 ± 0.099.

KCLVTEAQTLLRLSGVQRVESVFF [RSAD1] displayed a protein stability index under setting [1] of 2.53 ± 0.43 and a protein stability index under setting [2] of 2.4 ± 0.25.

For the sequence KCRMEESNAERGTAEPFPRLHNLY [CBY2], the protein stability index under setting [1] was 2.85 ± 0.27 and the protein stability index under setting [2] stood at 2.78 ± 0.15.

Sequence KDQRNPPSLGRVLPDPREACGSSS [RBMY1A1] registered a protein stability index under setting [1] of 4.78 ± 0.17 and a protein stability index under setting [2] of 5.18 ± 0.095.

For KDSHDPLPSWAELLRPKYRAPQGC [PBXIP1], the protein stability index was 3.01 ± 0.37 under setting [1] and 3.19 ± 0.2 under setting [2].

As for KEEEEEDCSEEYLERQLQAEFIES [TAF7L], the protein stability index was determined as 5.36 ± 0.36 under setting [1] and 5.56 ± 0.12 under setting [2].

Consider KEVFASRISNPSDDNSCEDLEEER [PCMTD2], for which the protein stability index came to 5.55 ± 0.33 under setting [1] and 5.41 ± 0.31 under setting [2].

In turn, KFAMYPPSMIATGSVGAAICGLQQ [CCND2] showed a protein stability index under setting [1] of 2.4 ± 0.52 and a protein stability index under setting [2] of 2.2 ± 0.4.

Regarding KFLVGTVGSDPLIKSDEECRDLVD [KLHL20], the protein stability index runs as follows: under setting [1], 4.41 ± 0.78; under setting [2], 4.14 ± 0.47.

For the sequence KGNRTARIIDKPRVIEVLPRGATA [SEPHS2], the protein stability index by setting is: under setting [1], 3.64 ± 0.22; under setting [2], 3.77 ± 0.2.

For KHAGKDPVRDECEERNRFTETREE [FAM9B], the protein stability index is 5.54 ± 0.2 under setting [1] and 5.49 ± 0.2 under setting [2].

Turning to KIESLMDEIEFLKKLHEEELRDLQ [PRPH], the protein stability index by setting is: under setting [1], 3.14 ± 0.23; under setting [2], 3.61 ± 0.35.

As to KILDELEKVLDQVETELQRRNEET [GDAP1], the protein stability index under setting [1] amounted to 3.08 ± 0.1 and the protein stability index under setting [2] is 3.53 ± 0.081.

With KIQASGETPNSLNTTVIPNGSMAM [LYSMD4], the protein stability index reads like this: under setting [1], 4.22 ± 0.097; under setting [2], 4.09 ± 0.2.

With KKIFAQLDSIIDDRVILSSSTSCL [CRYL1], the protein stability index came out at 2.35 ± 0.15 under setting [1] and 2.58 ± 0.3 under setting [2].

With KKKVGNYYTTPIYRFRMKCHLCVN [YJU2B], the protein stability index is 2.21 ± 0.33 under setting [1] and 2.19 ± 0.3 under setting [2].

For KLALDMEISAYRKLLQGEEERLKL [LMNB1], the protein stability index is, setting by setting: under setting [1], 3.24 ± 0.23; under setting [2], 3.28 ± 0.36.

KLEEERAKLHDVELHQVAERVEAL [GNB5]: the protein stability index reads like this: under setting [1], 5 ± 0.34; under setting [2], 5.15 ± 0.18.

In the case of KLKALHVDSAEYSCLKAIVLFTSD [NR2F2], the protein stability index under setting [1] came to 2.45 ± 0.36 and the protein stability index under setting [2] is 2.27 ± 0.15.

In the case of KLKKGICEALEDSDGRQDSPAGEL [MATN2], the protein stability index reads like this: under setting [1], 5.3 ± 0.28; under setting [2], 5.31 ± 0.15.

On to KLREKERKKEAKRKISSLSFTLEE [FAM50A], for which the protein stability index reads like this: under setting [1], 4.29 ± 0.3; under setting [2], 4.53 ± 0.34.

KLTREQEELEEALEVERQENEQRR [MNAT1]: the protein stability index is, setting by setting: under setting [1], 5.59 ± 0.18; under setting [2], 5.45 ± 0.27.

On to KPGEGRSALFAGNEWRRPIIQFVE [TRIM29], for which the protein stability index was determined as 2.34 ± 0.35 under setting [1] and 2.86 ± 0.46 under setting [2].

In the case of KQKVSRIERSSSFSSITDSTMSLN [DVL3], the protein stability index stood at 4.27 ± 0.049 under setting [1] and 4.43 ± 0.16 under setting [2].

Sequence KQLICPICLEMFTKPVVILPCQHN [TRIM63] yielded a protein stability index under setting [1] of 2.97 ± 0.31 and a protein stability index under setting [2] of 3.01 ± 0.43.

Consider KQQENATSCSLELIGDLIGHSSSV [WDR41], for which the protein stability index turned out to be 3.02 ± 0.37 under setting [1] and 3.17 ± 0.11 under setting [2].

For KRKLGLTALVGLRQNLSKSWLDVQ [TPD52L3], the protein stability index was determined as 2.17 ± 0.71 under setting [1] and 2.16 ± 0.42 under setting [2].

As for KSCYNGRFQLLYVACGMVHLLIPE [DNAAF3], the protein stability index amounted to 3.37 ± 0.63 under setting [1] and 2.77 ± 0.36 under setting [2].

Take KSIDPVLMAPTCVFLASKVEEFGV [CCNC]: the protein stability index by setting is: under setting [1], 1.92 ± 0.11; under setting [2], 2.05 ± 0.34.

In the case of KVAKLLGYSTHADFVLEMNTAKST [NLN], the protein stability index is, setting by setting: under setting [1], 1.9 ± 0.33; under setting [2], 2.35 ± 0.24.

KVRPSHKRCIVILREIPETTPIEE [LARP4] displayed a protein stability index under setting [1] of 2.59 ± 0.21 and a protein stability index under setting [2] of 2.58 ± 0.35.

Turning to KVSYLKQKGLGGAMVWALDLDDFA [CHIT1], the protein stability index reads like this: under setting [1], 1.85 ± 0.49; under setting [2], 2.36 ± 0.3.

In the case of KYDPTIEDSYRKQVEVDAQQCMLE [RAP1B], the protein stability index by setting is: under setting [1], 4.55 ± 0.12; under setting [2], 4.66 ± 0.11.

With LAFVGGLPLAYQQTSAFARQPRDE [TMEM175], the protein stability index came out at 3 ± 0.31 under setting [1] and 3.06 ± 0.15 under setting [2].
